Assay results taken from US20250109177A1, “EVOLVED PROTEIN DEGRONS” (The Broad Institute, Inc., priority 2022, published 2025).

How the values were obtained:
degron-tagged eGFP = test: Flow-based degradation assay, Degron-eGFP-IRES-mCherry in HEK293T cells; type: cell-based, human; conditions: HEK293T, overnight PT-179 treatment
Experimental: A flow-based degradation assay was then performed using a stably transduced Degron-eGFP-IRES-mCherry construct in HEK 293T cells to determine the ability of the evolved degrons to […] (see FIG. 7). Concentration of PT-179 is shown on the x-axis. Degrons indicated in the key were fused to the N-terminus of eGFP allowing measurement of eGFP:mCherry ratios for assessing degradation.
To characterize the evolved degrons, stable HEK293T cell lines expressing degron-tagged eGFP were generated (FIG. 19A). […] The final variant, SD36, potently degraded GFP in response to PT-179 (DC50=14 nM).

[1] = system: CRBN C-terminal domain (CTD); test: CRBN-CTD MG-PACE circuit transcriptional activation (luminescence); type: cell-based, human; conditions: at 50 μM PT-179

Sequence of degron-tagged eGFP (Q96SW2 24-442 limits assumed): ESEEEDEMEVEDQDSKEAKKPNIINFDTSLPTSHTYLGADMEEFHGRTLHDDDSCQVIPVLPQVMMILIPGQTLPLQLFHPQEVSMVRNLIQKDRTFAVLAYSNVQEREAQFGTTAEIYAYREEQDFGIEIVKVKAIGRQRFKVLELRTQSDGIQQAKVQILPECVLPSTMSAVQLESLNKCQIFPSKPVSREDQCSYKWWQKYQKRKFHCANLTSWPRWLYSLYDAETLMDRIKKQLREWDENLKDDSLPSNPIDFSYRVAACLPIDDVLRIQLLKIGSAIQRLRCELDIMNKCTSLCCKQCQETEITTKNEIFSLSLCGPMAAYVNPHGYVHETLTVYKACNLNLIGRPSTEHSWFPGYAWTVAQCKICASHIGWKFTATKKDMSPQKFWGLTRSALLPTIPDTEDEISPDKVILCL

B1: SD20: Evolved degron SEQ ID NO: 21: S10R E14D P16L E20K Q28E E42V P44T F45V R57K D58R A59C L60F *61VI (protein)
chain: FNVLMVHKRRHTGDRLLQCKICGFTCREKGNLLRHIKLHTGVKTVKCHLCNYACQRKRCFVI
In the case of B1, the “GFP degradation in response to PT-179” value (degron-tagged eGFP) is reported as “did not trigger GFP degradation” and the “luciferase expression, activation” value [1] is reported as 24 fold.
